Assay results taken from patent US20090324614A1.

Tests used:
[1] = biological target: rat FcRn/rat β2M expressed on cells (rat) (UniProt P13599); assay: FACS blocking of IgG-Fc, IgG, pH 6
[2] = biological target: soluble human FcRn (shFcRn) (human) (UniProt P55899); assay: Biacore, IgG immobilized, hFcRn flowed, pH 7.4

Sequence of rat FcRn/rat β2M expressed on cells (rat) (P13599 23-366 limits assumed, chain 1 of 2): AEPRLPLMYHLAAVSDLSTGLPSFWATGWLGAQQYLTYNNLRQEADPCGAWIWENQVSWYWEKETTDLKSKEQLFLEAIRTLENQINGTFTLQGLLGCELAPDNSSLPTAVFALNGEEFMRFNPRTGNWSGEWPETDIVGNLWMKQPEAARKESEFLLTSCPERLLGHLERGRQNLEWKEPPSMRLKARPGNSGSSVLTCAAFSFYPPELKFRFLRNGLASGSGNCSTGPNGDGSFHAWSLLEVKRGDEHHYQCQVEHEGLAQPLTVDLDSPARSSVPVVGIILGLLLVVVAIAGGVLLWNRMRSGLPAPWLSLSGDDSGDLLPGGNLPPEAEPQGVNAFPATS
Sequence of rat FcRn/rat β2M expressed on cells (rat) (b2m, as listed by the source limits assumed, chain 2 of 2): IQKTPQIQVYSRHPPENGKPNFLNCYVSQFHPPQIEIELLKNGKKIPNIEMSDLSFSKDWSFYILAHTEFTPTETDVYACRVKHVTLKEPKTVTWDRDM

IC50 [1] | Kd [2] | Substance
1.5 nM |  | 1G3 mouse anti-rat FcRn IgG (antibody)
 | 7.06 nM | M161-B04 IgG (DX-2504) (antibody)
